Values of other authors in paper PMC10218885.

Columns and labels:
Assay in all cases: NMR
Tyr42 = Tyr42 (UniProt position 42, GNILQYNAAEG)
Tyr94 = Tyr94 (UniProt position 94, NTMFEYTFDYQ)
Tyr76 = Tyr76 (UniProt position 76, DSPEFYGKFKE)
Tyr118 = Tyr118 (UniProt position 118, LSGDSYWVFVK)
Tyr98 = Tyr98 (UniProt position 98, EYTFDYQMTPT)

## Photoactive yellow protein (PYP) (Stated in the article as Halobacterium halobium; the PYP of the cited study is from Halorhodospira halophila (formerly Ectothiorhodospira halophila))
Tyr42
  pKa: > 13
Tyr94
  pKa: > 13
Tyr76
  pKa: 10.2–10.3
Tyr118
  pKa: 11.4–12.0
Tyr98
  pKa: 10.2–10.3
